From patent publication US20140328762A1, “Fluorogenic Peptide Probes and Assays” (priority 2011, published 2014)
Each block holds one binder with its values, some of them ahead of it.

Legend:
[1] = molecular target: T1, E3 peptide; experiment: Kd of the beacon (fluorescence) compared with Kd of unlabeled K3-b1b3 (CD), both for E3
T1 chain: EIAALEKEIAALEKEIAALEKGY

[2] = molecular target: T1, E3 peptide; experiment: fluorescence titration of 1 µM beacon with E3 peptide
[3] = molecular target: unlabeled JunLZ-Lb1b4 [MBP: P0AEX9]; experiment: fluorescence at 580 nm, 100 nM beacon, 10 µM partner (FIG. 14A, column B)
[4] = molecular target: T1, E3 peptide; experiment: fluorescence titration of 1 µM beacon with E3 peptide, curve fitting
[5] = molecular target: FosLZ (MBP-FosLZ, fusion protein of MBP and the cFos leucine zipper) [MBP: P0AEX9]; experiment: fluorescence at 580 nm, 100 nM beacon, 10 µM partner (FIG. 14A, column C)
[6] = molecular target: unlabeled GCN4 244 (yeast); experiment: fluorescence at 580 nm, 100 nM beacon, 10 µM partner (FIG. 14A, column D)
[7] = molecular target: T1, E3 peptide; experiment: fluorescence titration of 10 nM beacon with E3 peptide, curve fitting
[8] = molecular target: T1, E3 peptide; experiment: fluorescence at 580 nm, 100 nM beacon, 10 µM partner (FIG. 14A, column E)
[9] = molecular target: T2, full length human XRCC4 protein (recombinant, E. coli) (human), Q13426; experiment: fluorescence of 2 µM beacon with increasing concentration of XRCC4 (FIG. 8)
[10] = molecular target: truncated XRCC4 protein that does not have DNA ligase IV binding site (recombinant, E. coli) (human), Q13426; experiment: absorbance spectra, 1 µM beacon, 40 µM protein; beacon only 0.40 (FIG. 7)
[11] = molecular target: T2, full length human XRCC4 protein …; experiment: as above
[12] = molecular target: T1, E3 peptide; experiment: CD spectra analysis, curve fitting (data not shown)

T2 sequence (Q13426 whole entry, the tested form may be a part): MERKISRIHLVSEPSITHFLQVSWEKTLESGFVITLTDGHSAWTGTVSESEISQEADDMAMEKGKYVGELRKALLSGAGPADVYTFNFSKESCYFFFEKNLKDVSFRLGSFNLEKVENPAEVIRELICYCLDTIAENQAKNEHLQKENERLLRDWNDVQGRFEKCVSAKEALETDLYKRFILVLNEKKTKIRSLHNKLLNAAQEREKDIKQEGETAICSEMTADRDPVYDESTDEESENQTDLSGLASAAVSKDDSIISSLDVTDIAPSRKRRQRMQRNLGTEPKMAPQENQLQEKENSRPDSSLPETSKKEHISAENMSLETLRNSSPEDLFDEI
truncated XRCC4 protein that does not have DNA ligase IV binding site (recombinant, E. coli) (human), Q13426, sequence (Q13426 2-150 limits assumed): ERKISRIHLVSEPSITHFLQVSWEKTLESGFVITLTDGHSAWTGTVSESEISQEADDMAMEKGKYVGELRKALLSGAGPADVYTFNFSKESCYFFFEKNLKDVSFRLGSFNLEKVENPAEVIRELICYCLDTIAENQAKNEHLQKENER

- fold decrease of binding affinity against unlabeled K3-b1b3 [1]: 17 fold
- maximum fluorescence enhancement [2]: 12 fold
- fluorescence enhancement over beacon only [3]: 1.5 fold
- Kd [4]: 766 nM
- fluorescence enhancement over beacon only [5]: 1.6 fold
- fluorescence enhancement over beacon only [6]: 1.2 fold
- Kd [7]: 738 nM
- fluorescence enhancement over beacon only [8]: 7 fold
Binder: KICALKAKIAALKAKICALKAGY (modifications not checked) [K3-b1b3 beacon]

- fluorescence enhancement [9]: 9.5 fold
- A550/A520 ratio [10]: 0.38
- A550/A520 ratio [11]: 0.46
Binder: CREYDSYGDSYFIDTDLNQLKEVFSGIKCG (modifications not checked) [LigIV-C1 peptide beacon]

- Kd [12]: 45 nM
Binder: KICALKAKIAALKAKICALKAGY (modifications not checked) [K3-b1b3 peptide (unlabeled)]
